Results as given in US20250361297A1, “ANTI- SIGLEC-15 BINDING MOLECULES AND METHODS OF USE” (ADAPTAM THERAPEUTICS, S.L., priority 2024, published 2025).

Experiments:
[1] = target: T1, recombinant human Siglec-15 protein (Homo sapiens, UniProt Q6ZMC9); test: BIACORE surface plasmon resonance binding affinity; conditions: SPR; antibody as ligand, human Siglec-15 as analyte; 1:1 Langmuir model
T1 construct: purchased Bonopusbio CW70-50 ug
T1 sequence (Q6ZMC9 20-263 limits assumed): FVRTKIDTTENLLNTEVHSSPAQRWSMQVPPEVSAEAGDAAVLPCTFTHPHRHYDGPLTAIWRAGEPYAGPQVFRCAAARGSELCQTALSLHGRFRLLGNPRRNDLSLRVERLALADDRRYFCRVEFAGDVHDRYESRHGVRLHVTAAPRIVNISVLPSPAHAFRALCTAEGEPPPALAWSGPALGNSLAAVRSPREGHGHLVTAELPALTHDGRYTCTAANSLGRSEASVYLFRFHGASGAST
Text: Binding affinity determination of anti-Siglec-15 monoclonal antibodies using BIACORE surface plasmon resonance: The purified anti-Siglec-15 monoclonal antibodies (mAbs) were characterized for binding affinity and binding kinetics by Biacore T200 system (GE healthcare, Pittsburgh, PA, USA). Anti-Siglec-15 antibodies were covalently linked to a CM5 chip (carboxy methyl dextran coated chip, GE healthcare, Cat #BR-1005-30) via primary amines, using a standard amine coupling kit provided by Biacore (GE healthcare, Pittsburgh, PA, USA). Un-reacted moieties on the biosensor surface were blocked with ethanolamine. Then, serially diluted recombinant human Siglec-15-his protein (Bonopusbio, CW70-50 ug), 2-fold serial dilution in HBS-EP buffer starting at 80 nM, were respectively flown onto the chip at a flow rate of […]. The antigen-antibody association kinetics was followed for 2 minutes, and the dissociation kinetics was followed for 10 minutes. The association and dissociation curves were fit to a 1:1 Langmuir binding model using BIAcore evaluation software. The dissociation rate (kd) and association constant (ka) rate constants were obtained using Evaluation Software. The equilibrium dissociation constant (KD) was calculated from the ratio of kd over ka.

human Siglec-15 = target: T2, human Siglec-15 (Homo sapiens, UniProt Q6ZMC9); test: Competitive flow cytometry assay with benchmark antibodies; assay type: binding
T2 construct: expressed in transfected cells
T2 sequence (Q6ZMC9 20-328): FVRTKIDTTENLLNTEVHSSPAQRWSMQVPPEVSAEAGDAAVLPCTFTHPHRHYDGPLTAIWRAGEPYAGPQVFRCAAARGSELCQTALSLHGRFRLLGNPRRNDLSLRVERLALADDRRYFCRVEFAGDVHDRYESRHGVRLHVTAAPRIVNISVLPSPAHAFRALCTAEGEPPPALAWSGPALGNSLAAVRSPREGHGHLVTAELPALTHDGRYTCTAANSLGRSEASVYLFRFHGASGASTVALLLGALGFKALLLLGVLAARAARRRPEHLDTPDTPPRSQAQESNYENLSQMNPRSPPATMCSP
Protocol: Epitope mapping assay by Flow cytometry: Competition with benchmark mouse IgG antibodies: 50,000 cells/well of THP-1 S15 OE were added to a round bottom 96 well plate, and centrifuged at 450×G for 5 minutes, and the supernatant was discarded. Human anti-siglec-15 IgG antibodies (starting at 198 nM, 3-fold serial dilution in staining buffer) were added to 100 μl of staining buffer and cells were resuspended with it and incubated for 40 minutes on ice. 100 μl of staining buffer were added to wells, centrifuged at 450× G for 5 minutes and the supernatants discarded. Benchmark mouse IgG antibodies were diluted at 33.3 nM and cells resuspended in 100 μl of the mix and incubated for 40 minutes on ice. Then, 100 μl of staining buffer were added to wells, centrifuged at 450×G for 5 minutes and the supernatants discarded. The secondary antibody anti-mouse IgG-Alexa647 was prepared at 1:200 dilution in 100 μl of staining buffer and added to each well, and cells were incubated for 40 minutes on ice. Cells were washed with 100 μl of staining buffer and centrifuged at 450×G for 5 minutes to discard the supernatant. Cells were resuspended in 150 μl of staining buffer and acquired in a flow cytometer.

[2] = test system: recombinant cynomolgus Siglec-15 protein; test: ELISA binding to recombinant cynomolgus Siglec-15 protein; parameters: species or system cynomolgus monkey; conditions: ELISA (FIG. 11B)
Sequence of recombinant cynomolgus Siglec-15 protein (as listed by the source): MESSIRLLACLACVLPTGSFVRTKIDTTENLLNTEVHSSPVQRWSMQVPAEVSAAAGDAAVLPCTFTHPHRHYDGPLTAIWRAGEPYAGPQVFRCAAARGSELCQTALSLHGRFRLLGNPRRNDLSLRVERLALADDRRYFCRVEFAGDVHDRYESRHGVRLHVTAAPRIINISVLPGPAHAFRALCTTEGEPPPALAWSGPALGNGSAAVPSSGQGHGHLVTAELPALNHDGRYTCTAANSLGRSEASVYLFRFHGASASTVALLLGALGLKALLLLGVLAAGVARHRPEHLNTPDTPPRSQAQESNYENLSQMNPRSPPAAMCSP
Protocol: Binding to human, cynomolgus and mouse Siglec-15 by ELISA: 96-well micro plates were coated with 50 μl of 2 μg/ml cynomolgus Siglec-15-his protein (Bonopusbio, CW70-50 ug), or 2 μg/ml mouse Siglec-15-his protein (Bonopusbio, CW71-50 ug), or 2 μg/ml human Siglec-15-his protein (Bonopusbio, CW37-50 ug) in carbonate/bicarbonate buffer (pH 9.6) overnight at 4° C. ELISA plates were washed once with wash buffer (PBS+0.1% v/v Tween-20, PBST) and then blocked with 200 μl/well blocking buffer (3% w/v non-fatty milk in PBST) 1 hour at room temperature. Plates were washed 3 times and incubated with […] serially diluted anti-Siglec-15 antibodies of the disclosure or controls (starting at 198 nM, 3-fold serial dilution in PBST with 1% w/v non-fatty milk) for 2 hours at room temperature. ELISA plates were washed 3 times again and incubated with Peroxidase Goat anti-Human IgG Fc Secondary Antibody (100 μl, 1:5000 dilution in PBST buffer, A18817 Thermo Scientific) for 1 hour at room temperature. After another 3 washes, plates were incubated with 100 μl/well TMB (N301, Thermo Scientific). The reaction was stopped 2 minutes later at room temperature with 50 μl of STOP solution (N600, Thermo Scientific), and the absorbance of each well was read on a NIVO microplate reader at 450. OD values were plotted against antibody concentration. Data was analyzed using Graphpad Prism software.

[3] = target: T3, Siglec-15 on human macrophages (Homo sapiens, UniProt Q6ZMC9); test: Flow cytometry binding to Siglec-15 positive human macrophages; conditions: compared to clone 5G12 (FIG. 3)
T3 construct: endogenous in cells; host or cells: human monocyte-derived macrophages from donor PBMCs
T3 sequence (Q6ZMC9 20-328): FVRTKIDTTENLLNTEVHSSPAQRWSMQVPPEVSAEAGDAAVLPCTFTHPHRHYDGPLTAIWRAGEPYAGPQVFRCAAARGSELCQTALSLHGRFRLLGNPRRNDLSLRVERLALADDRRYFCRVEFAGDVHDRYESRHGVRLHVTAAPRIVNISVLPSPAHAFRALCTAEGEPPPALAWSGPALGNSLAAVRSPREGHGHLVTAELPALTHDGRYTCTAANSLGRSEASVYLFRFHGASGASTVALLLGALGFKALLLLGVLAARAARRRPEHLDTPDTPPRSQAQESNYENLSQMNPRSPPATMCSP
Protocol: Post-polarization, the macrophages were harvested, washed using Flow Cytometry Staining Buffer (00-4222-26, Thermo Fisher Scientific), and subsequently incubated with fluorochrome-conjugated antibodies against Siglec-15, PD-L1, CD206, and CD163. This step was performed for 30 minutes at 4° C. in a dark environment to prevent photobleaching of the fluorochromes and to maintain the integrity of the antibodies.
Following incubation, the cells underwent a second washing step and then resuspended in 200 μL of Flow Cytometry Staining Buffer containing DAPI (1:10,000) (D1306, Invitrogen). DAPI is a nuclear stain that facilitates the identification of viable cells and enables the exclusion of dead cells or debris during analysis. The stained cells were analyzed using a FACSymphony flow cytometer (BD Biosciences). The flow cytometry data were then processed and analyzed using FlowJo software (BD Biosciences).

[4] = test system: osteoclast differentiation; test: Osteoclast differentiation in vitro (TRACP 5b in culture medium); assay type: cell-based; conditions: relative to baseline levels; culture medium at day 7 (FIG. 46)

ka [1]: 4.46e+06 M⁻¹ s⁻¹
kd [1]: 0.000233 s⁻¹
inhibition of binding of 5G12 (benchmark 1) (human Siglec-15; competitive flow cytometry (FIG. 18A)): outperformed A2A5C7E8
inhibition of binding of A2A5C7E8 (benchmark 2) (human Siglec-15; competitive flow cytometry (FIG. 18B)): outperformed 5G12
extent of binding to cynomolgus Siglec-15 relative to 5G12 [2]: higher extent than 5G12
binding to Siglec-15 on human macrophages [3]: superior binding
B1: S15B1: parental mouse anti-Siglec-15 monoclonal antibody from hybridoma; VH SEQ ID NO: 18, VL SEQ ID NO: 19 (antibody, V domains shown)
VH: QVQLQQSGPELVKPGASVKISCKASGYAFSSSWMNWVKQRPGKGLEWIGRIYPGHGETNYNGKFKDKATVTADKSSSTTYMQLSSLTSEDSAVYFCARVDNSDPYYFDYWGQGTTLTVSS
VL: DIVLTQSPASLAVSLGQRATISCRASKSVSTSGYSYMHWYQQKPGQPPKLLIYLASNLESGVPARFSGSGSGTDFTLNIHPVEEEDAATYYCQHGRELPFTFGSGTKLEIK
modifications: Clone S15B1 VH; Clone S15B1 VL
effect on osteoclast differentiation (TRACP 5b) [4]: did not significantly affect
